B3: HK853, complete cytoplasmic portion (DHp and CA domains), wild type (domain or fragment, Thermotoga maritima)
chain: VENVTESKELERLKRIDRMKTEFIANISHELRTPLTAIKAYAETIYNSLGELDLSTLKEFLEVIIDQSNHLENLLNELLDFSRLERKSLQINREKVDLCDLVESAVNAIKEFASSHNVNVLFESNVPCPVEAYIDPTRIRQVLLNLLNNGVKYSKKDAPDKYVKVILDEKDGGVLIIVEDNGIGIPDHAKDRIFEQFYRVDSSLTYEVPGTGLGLAITKEIVELHGGRIWVESEVGKGSRFFVWIPKDRAGEDNRQDN
notes: Sensor histidine kinase HK853 of Thermotoga maritima, complete cytoplasmic (catalytic) portion with DHp and CA domains; source: E. coli BL21-CodonPlus(DE3)-RIL, purified (70 °C heat step, HisTrap HP, TEV digestion, Superdex 200)
B4: HK853 H260A, complete cytoplasmic portion (domain or fragment, Thermotoga maritima)
chain: VENVTESKELERLKRIDRMKTEFIANISAELRTPLTAIKAYAETIYNSLGELDLSTLKEFLEVIIDQSNHLENLLNELLDFSRLERKSLQINREKVDLCDLVESAVNAIKEFASSHNVNVLFESNVPCPVEAYIDPTRIRQVLLNLLNNGVKYSKKDAPDKYVKVILDEKDGGVLIIVEDNGIGIPDHAKDRIFEQFYRVDSSLTYEVPGTGLGLAITKEIVELHGGRIWVESEVGKGSRFFVWIPKDRAGEDNRQDN
notes: ADP was added for crystallisation; Same limits as m1; source: E. coli BL21-CodonPlus(DE3)-RIL, purified (70 °C heat step, HisTrap HP, TEV digestion, Superdex 200)

How the values were obtained:
[1] = biological target: B3; experiment: crystal structure; HK853 (10 mg/ml) and RR468 (7.5 mg/ml) with 4 mM ADP, 30 mM NaF, 5 mM BeSO4, 7 mM MgCl2; sitting drops at 21 °C; 1.8 M (NH4)2SO4, 0.1 M sodium citrate; four structures at pH 5.5, 6.5, 7 and 7.5; conditions: both partners purified
[2] = biological target: B4; experiment: crystal structure; HK853 H260A and RR468 D53A with 4 mM ADP; sitting drops at 21 °C; pH 7.5: 1.8 M (NH4)2SO4, 100 mM sodium citrate; pH 5.3: 1.2 M (NH4)2SO4, 100 mM Bis-Tris; two structures; conditions: both partners purified
[3] = biological target: B3; experiment: crystal structure; HK853 wild type and RR468 D53A with 4 mM ADP; sitting drops at 21 °C; pH 7: 1.8 M (NH4)2SO4, 100 mM sodium citrate; pH 5.3: 1.2 M (NH4)2SO4, 100 mM Bis-Tris; two structures; conditions: both partners purified
[4] = biological target: the molecule itself; experiment: crystal structure; HK853 (10 mg/ml) and RR468 (7.5 mg/ml) with 4 mM ADP, 30 mM NaF, 5 mM BeSO4, 7 mM MgCl2; sitting drops at 21 °C; 1.8 M (NH4)2SO4, 0.1 M sodium citrate; four structures at pH 5.5, 6.5, 7 and 7.5
[5] = biological target: the molecule itself; experiment: crystal structure; HK853 H260A and RR468 D53A with 4 mM ADP; sitting drops at 21 °C; pH 7.5: 1.8 M (NH4)2SO4, 100 mM sodium citrate; pH 5.3: 1.2 M (NH4)2SO4, 100 mM Bis-Tris; two structures

B1: RR468 wild type, bound to the phosphomimetic BeF3- (natural protein, Thermotoga maritima)
chain: MSKKVLLVDDSAVLRKIVSFNLKKEGYEVIEAENGQIALEKLSEFTPDLIVLDIMMPVMDGFTVLKKLQEKEEWKRIPVIVLTAKGGEEDESLALSLGARKVMRKPFSPSQFIEEVKHLLNE
modifications: phosphomimetic BeF3- bound to the phosphoacceptor D53
notes: Response regulator RR468 of Thermotoga maritima; BeF3- was formed in the crystallisation mixture from 30 mM NaF, 5 mM BeSO4 and 7 mM MgCl2; source: E. coli BL21-CodonPlus(DE3)-RIL, purified (70 °C heat step, HisTrap HP, TEV digestion, Superdex 75)
binding result [1]: binds

B2: RR468 D53A (natural protein, Thermotoga maritima)
chain: MSKKVLLVDDSAVLRKIVSFNLKKEGYEVIEAENGQIALEKLSEFTPDLIVLAIMMPVMDGFTVLKKLQEKEEWKRIPVIVLTAKGGEEDESLALSLGARKVMRKPFSPSQFIEEVKHLLNE
notes: Response regulator RR468 of Thermotoga maritima cloned in pET22b, with the phosphoacceptor Asp53 changed to Ala; lacks a Histag; source: E. coli BL21-CodonPlus(DE3)-RIL, purified (70 °C heat step, Mono Q, Superdex 75)
binding result [2]: binds | binding result [3]: binds

B3
binding result [4]: binds

B4
binding result [5]: binds

Source: paper PMC7005713, “Revisiting the pH-gated conformational switch on the activities of HisKA-family histidine kinases” (Nature Communications, 2020)
